Measurements reported in US20200016512A1, “AFFINITY […] FOR PURIFYING IMMUNOGLOBULIN” (KANEKA CORPORATION, priority 2017, published 2020).

Test system: Fab
Assay: Residual binding activity to Fab after alkali treatment (alkali resistance)
Type: physicochemical, human
Conditions: 0.2 mL peptide solution + 0.1 mL 45 mM sodium hydroxide, 25° C., 2 hours; compared with SpG mutant SEQ ID NO: 20
Procedure: Each peptide was subjected to dialysis using ultrapure water and the concentration thereof was adjusted to obtain 4 μM aqueous solution. To 0.2 mL of the aqueous solution, 0.1 mL corresponding to a half amount of the aqueous solution of 45 mM sodium hydroxide aqueous was added. The mixture was incubated at 25° C. for 2 hours and then neutralized by 0.1 mL of 50 mM acetic acid (pH 3.0). After it was confirmed that the mixture was neutralized by using a pH test paper, the mixture was diluted to 20 times by the standard buffer so that the concentration was adjusted to 100 nM.
The peptide solution prepared as the above was defined as a sample before alkali treatment at 0 hr, and 0.1 mL of the above sodium hydroxide aqueous solution and 0.1 mL of 50 mM acetic acid (pH 3.0) were preliminarily mixed and the mixture was added to the sample. The final concentration of the peptide in the solution was 100 nM.
A binding to an immunoglobulin by a similar method to Example 2(2) using Octet and the peptide solutions before and after the alkali treatment prepared in the above (1) was measured. An Fc was used instead of IgG in this experiment in order to simplify a binding pattern. […]
A residual binding activity to a Fab of the Fab-binding activity-enhanced peptides of SEQ ID NOs: 11 and 13 after the alkali resistance was also evaluated. […]

| Substance | Alkali resistance: residual binding activity to a Fab after the alkali treatment (FIG. 3B) |
| --- | --- |
| SEQ ID NO: 11: Fab-binding activity-enhanced immunoglobulin-binding peptide, partly mutated sequence of SEQ ID NOs: 2 to 7 (TTYKLIVKGNTLTGYTTTIAVDAETAEKALKQFANENGVYGEWSYDDATKTFTVTE; novel peptide) | similarly improved |
| SEQ ID NO: 13: Fab-binding activity-enhanced immunoglobulin-binding peptide, partly mutated sequence of SEQ ID NOs: 2 to 7 (TTYRLVIKGVTLTGYTATIAVDAATAEQTLRQFANDNGITGEWAYDTATKTFTVTE; novel peptide) | similarly improved |
